Where two headings read alike, the source gives them in different places.
T1: GST-Rb pocket (aa 379-792) (human, UniProt P06400 379-792)
T1 sequence (looked up): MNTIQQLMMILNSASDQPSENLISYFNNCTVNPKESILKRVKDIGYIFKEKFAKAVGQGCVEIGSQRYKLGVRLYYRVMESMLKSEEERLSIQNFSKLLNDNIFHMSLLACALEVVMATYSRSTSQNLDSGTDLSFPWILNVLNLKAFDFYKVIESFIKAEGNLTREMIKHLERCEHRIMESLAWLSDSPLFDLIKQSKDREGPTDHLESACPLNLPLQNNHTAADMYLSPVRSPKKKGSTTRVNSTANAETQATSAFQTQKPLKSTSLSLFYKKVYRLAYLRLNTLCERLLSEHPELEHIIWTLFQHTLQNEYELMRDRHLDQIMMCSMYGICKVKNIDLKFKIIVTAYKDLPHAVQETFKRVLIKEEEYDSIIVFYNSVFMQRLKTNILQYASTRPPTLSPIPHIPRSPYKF

T2: GST-Rb∆N (aa 379-928) (human, UniProt P06400 379-928)
T2 sequence (looked up): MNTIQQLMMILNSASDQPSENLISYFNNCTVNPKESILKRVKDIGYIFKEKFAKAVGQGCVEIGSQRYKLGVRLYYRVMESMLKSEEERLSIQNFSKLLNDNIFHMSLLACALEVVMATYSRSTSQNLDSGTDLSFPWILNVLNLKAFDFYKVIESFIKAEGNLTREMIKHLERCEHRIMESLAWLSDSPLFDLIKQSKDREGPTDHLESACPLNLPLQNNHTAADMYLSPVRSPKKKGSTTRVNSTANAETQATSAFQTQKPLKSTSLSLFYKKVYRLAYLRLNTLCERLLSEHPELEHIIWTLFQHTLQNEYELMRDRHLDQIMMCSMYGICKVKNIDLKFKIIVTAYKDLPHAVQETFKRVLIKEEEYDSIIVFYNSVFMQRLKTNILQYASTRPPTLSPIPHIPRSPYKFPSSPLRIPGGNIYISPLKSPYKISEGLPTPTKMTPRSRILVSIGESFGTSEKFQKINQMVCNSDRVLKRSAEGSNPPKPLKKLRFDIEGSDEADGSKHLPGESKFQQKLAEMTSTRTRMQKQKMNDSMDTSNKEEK


Legend:
Assay in all cases: pull-down
[1] = biological target: T1, GST-Rb pocket (aa 379-792)
[2] = biological target: T1, GST-Rb pocket (aa 379-792); remark: listed apart in the source
GST-Rb∆N (aa 379-928) = biological target: T2, GST-Rb∆N (aa 379-928)

Row | binding result [1] | binding result [2] | binding result (GST-Rb∆N (aa 379-928)) | Binder
1 | binds | – | – | Rb 40-355 ∆Ex5 (domain or fragment, human, UniProt P06400 40-355, looked up) EDLPLVRLEFEETEEPDFTALCQKLKIPDHVRERAWLTWEKVSSVDGVLGGYIQKKKELWGICIFIAAVDLDEMSFTFTELQKNIEISVHKFFNLLKEIDTSTKVDNAMSRLLKKYDVLFALFSKLERSTEINSALVLKVSWITFLLAKGEVLQMEDDLVISFQLMLCVLDYFIKLSPPMLLKEPYKTAVIPINGSPRTPRRGQNRSARIAKQLENDTRIIEVLCKEHECNIDEVKNVYFKNFIPFMNSLGLVTSNGLPEVENLSKRYEEIYLKNKDLDARLFLDHDKTLQTDSIDSFETQR
2 | – | binds | – | NRLTEELGCDEIIDRE (peptide, UniProt Q9Y6B2 172-187, looked up) [EID-1 LxCxE peptide (aa 172-187, LxCxE)]
3 | binds | – | binds | RbN (aa 40-355), Rb N-terminal domain (domain or fragment, human, UniProt P06400 40-355, looked up) EDLPLVRLEFEETEEPDFTALCQKLKIPDHVRERAWLTWEKVSSVDGVLGGYIQKKKELWGICIFIAAVDLDEMSFTFTELQKNIEISVHKFFNLLKEIDTSTKVDNAMSRLLKKYDVLFALFSKLERTCELIYLTQPSSSISTEINSALVLKVSWITFLLAKGEVLQMEDDLVISFQLMLCVLDYFIKLSPPMLLKEPYKTAVIPINGSPRTPRRGQNRSARIAKQLENDTRIIEVLCKEHECNIDEVKNVYFKNFIPFMNSLGLVTSNGLPEVENLSKRYEEIYLKNKDLDARLFLDHDKTLQTDSIDSFETQR

— PMC4944837 (Molecular cell, 2007)
